Assay results from publication PMC3488000.

Key:
Test in all cases: SEC; Superdex 200 on an AKTA FPLC, 20 mM Tris, 1M NaCl, pH 8.0; column calibrated with globular protein standards; oligomeric state = estimated net mass divided by the calculated monomer mass (16.3 kDa)
[1] = target: FbFP F37S (Pseudomonas putida KT2440) (UniProt Q88JB0)
[2] = target: FbFP F37T (Pseudomonas putida KT2440) (UniProt Q88JB0)
[3] = target: flavin-binding fluorescent protein (FbFP) from Pseudomonas putida (Pseudomonas putida KT2440) (UniProt Q88JB0)

Substance: FbFP F37S (from UniProt Q88JB0 1-151) (natural protein)
- stoichiometry N [1]: 1.78

Substance: FbFP F37T (from UniProt Q88JB0 1-151) (natural protein)
- stoichiometry N [2]: 1.87

Substance: flavin-binding fluorescent protein (FbFP) from Pseudomonas putida (from UniProt Q88JB0 1-151) (natural protein)
- stoichiometry N [3]: 1.81
